Amyloid nucleation score data for 140 substances are collected here from the supplement of paper PMC12042874.

± gives the uncertainty stated by the source.

A short description of the series: amyloid nucleation score (Sup35N fusion, yeast selection) (log enrichment); library NNK2; higher = more nucleation; inactive = no reads after selection. The gist of the method:
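Psi-negative yeast expressed Sup35N fused to peptides of 20 random codons. They were induced 24 hours with 100 μM copper sulfate, grown 7 days at 30°C without adenine and uracil, and their plasmid inserts from input and output were Illumina-sequenced. The nucleation score is the DiMSum log enrichment of output over input reads, centred on the mode score of non-aggregating sequences. Sequences with under 100 input reads were excluded.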
As to KVINFGCTTFDYGYATYFGQ, the amyloid nucleation score amounted to 6.66 ± 0.055. For LKDETN, the amyloid nucleation score entry is “inactive”.

The substance CCDNY showed an amyloid nucleation score of -0.778 ± 0.54. The result for EELKYYSISVMLRGRHALLI reads -0.894 ± 0.56; that for IHWGLIIGSCRF, 1.56 ± 0.27. The substance YCNNYG displayed an amyloid nucleation score of -2.65 ± 0.75. Then FRNFELSRTFVVYNPVLQCY, with -0.473 ± 0.39; and TEDDCGK, with 0.975 ± 0.17. The result for CLPETLVDFWFKAHDAFNFV reads “inactive”; that for NGSYGSYMHFPEPIMSIFMY, “inactive”; that for GLCKTVSWRNSSLEKDLFGR, -0.813 ± 0.78.

The substance YASCLSSKLCDEDNPTYW showed an amyloid nucleation score of -0.488 ± 0.39.

As to FKIAGRI, the amyloid nucleation score result is “inactive”. The result for VTIGLNDFLTWDRWFYVFYG reads -0.873 ± 0.25. For TMLTFG, the amyloid nucleation score is -0.913 ± 0.76.

Substance IPYLDYMTMH displayed an amyloid nucleation score of 0.082 ± 0.22. The result for SLYDGRVVRMYSRH reads 2.65 ± 0.1; that for SMTDRFPSIIYRECILWVTW, -0.035 ± 0.76; that for ANLFVCMDDM, -0.051 ± 0.23. The result for YLYKLFGDDFGDWFLICFFR reads “inactive”. VCRNDRLVWCKLGVEFSGVA yielded an amyloid nucleation score of 1.31 ± 0.26. With SNDDIEIAKRSHMY, the amyloid nucleation score is 0.196 ± 0.54.

In the case of RFTFFAGAS, the amyloid nucleation score was determined as 0.367 ± 0.21. On to LMHWV, for which the amyloid nucleation score was -0.94 ± 0.38. The result for ECGDRIL reads 0.536 ± 0.42; that for NIAKSEILRIWNWW, “inactive”.

On to NRKEQVVPLHVRSPI, for which the amyloid nucleation score stood at 1.13 ± 0.17. Substance SSWSLCIYLINRKKAEYVVI yielded an amyloid nucleation score of 0.462 ± 0.53. Then PYSTTNGHSGVWLRWLKGPC, with 0.569 ± 0.27; and KLTFTVMYTFCKVLSRDVAC, with 3.1 ± 0.1; and KCGSSVVYFIVYQRKLKWGW, with 0.961 ± 0.81. The result for RRGNWKMSFFRMLTVNP reads -0.488 ± 0.55.

The substance GCLPHGY came in with an amyloid nucleation score of 0.663 ± 0.62. The result for ESFARFIAM reads -0.033 ± 0.55; that for YLCYNALNDFD, -0.445 ± 0.41. Then VCVFTDLGCRY, with -0.493 ± 1.1; and SLGLGDVWGGQAYRSAGA, with 0.2 ± 0.28.

TILDIVLIIPAKVVHKEERR came in with an amyloid nucleation score of -0.093 ± 0.41. Then SRTAWVDLPDCWQVVKFGSV, with -0.025 ± 1.1; and MVMANHRSYRY, with 7.663 ± 0.026; and GGTPRSINVF, with 0.201 ± 0.8. The result for VHPGMNLDMSNACSAFVRTW reads -0.631 ± 1; that for MCRRFNFIIEVVVNASMTIR, -1.31 ± 1; that for YWSRRAYCFCSAFFYNTGFF, 1.53 ± 0.19. Regarding LRREGTYIRPCKDMYFGDSC, the amyloid nucleation score result was “inactive”. The result for LVNVM reads 1.39 ± 0.095. Substance VHQYDSVSAVHADCMG displayed an amyloid nucleation score of -1.27 ± 0.53. Then TVSRTVCVASYCLSSEKTSG, with -0.899 ± 0.31; and LLDMYNYTGIF, with “inactive”. The result for GVRYSFSTTRKFTELSFNIC reads 3 ± 0.16. Then GTTCGSSCRVVSLMKENVGA, with -0.367 ± 0.48.

CYARSASGVAIAVRRKRGVQ returned an amyloid nucleation score of 1.23 ± 0.18. Then FFFNYLSCLRNAVNWFNRGM, with “inactive”; and SRIGVLPDNVDTSAKLAYRL, with 6.95 ± 0.078; and PYYTIVMFAFYGLLTVRMGI, with 0.706 ± 0.4.

Substance FFLLAGVLDWAYGWYYIVWK displayed an amyloid nucleation score of 0.147 ± 1.1. In the case of AFTCYVETSIIMPNMS, the amyloid nucleation score is -0.734 ± 0.76. As for YMFAIHELNGEIIGPFTVNP, the amyloid nucleation score result is “inactive”. Then RGWCFWASPGRR, with 0.2 ± 0.26; and PVFRFTSGPLDKNCVYRVN, with 0.564 ± 0.57; and TYVLSGEGEIKA, with 1.54 ± 0.33. With ETYLVFV, the amyloid nucleation score is 0.072 ± 0.79.

The substance RTCDDA had an amyloid nucleation score of 0.294 ± 0.8. The result for LYLHKDHIDVNFNHMVKGLT reads -0.263 ± 1.1; that for YSRGIWCNLDGHERCVSLST, -0.266 ± 1.1; that for FSYFVFLVKFVTVFTPTIHV, -1.12 ± 0.3. FFCFFKIYFWMRAAGTSLNR had an amyloid nucleation score of -0.861 ± 1. On to RDSFRDTAYHELVYFTKNFR, for which the amyloid nucleation score result is “inactive”. The result for HEGIDVSMPHQDRTAADNLA reads 0.409 ± 0.53; that for YEGYLVSVQLRRMWDVQLGP, 3.79 ± 0.054; that for NIRSYPVNYKHHFT, 0.19 ± 0.27.

In the case of VHSNCSLNGPCMPMCVRRRW, the amyloid nucleation score was 0.302 ± 0.56.

Turning to ECMAWGIFCGGSSGIFCLNQ, the amyloid nucleation score entry was “inactive”. Substance SFRDLDAAVEEV displayed an amyloid nucleation score of -0.225 ± 0.48. Substance RIGVSSFVEEHSRIGLGRAP had an amyloid nucleation score of 5.57 ± 0.066. Then RGSNVGMRDLAYRPHSGQMW, with 1.68 ± 0.56; and RNQNLLWNVSGIAFNKMRRK, with 4.02 ± 0.093.

IWGPVLYIMSGYSSVVTRF came in with an amyloid nucleation score of 6.561 ± 0.055.

In turn, WRLSLGYPVSALQMRMPGTL returned an amyloid nucleation score of 2.1 ± 0.22. IYQVRLYD returned an amyloid nucleation score of -0.923 ± 0.5.

Turning to ALYLMTFPSRDLIRACEEA, the amyloid nucleation score came out at 0.678 ± 0.56. The result for ICIFIWIDASRACKPNIQCS reads 5.58 ± 0.062. The result for WSEYRFRHIPKLKKCYQVD reads 0.175 ± 0.32. The result for RRRPRGLEGFAERGLGDWTY reads 1.36 ± 0.44; that for NGVRLNLVNFSFGLDVMPFR, 7.642 ± 0.071. In turn, LLSRPTGQLVVPSQGLHFCY showed an amyloid nucleation score of 0.242 ± 0.61. Take PFSFRLSGINSPPVISVA: the amyloid nucleation score is -1.16 ± 0.41. The result for WKALAS reads 1.74 ± 0.11; that for GSWLCCSLRWSSSALGVGWA, 1.12 ± 0.39; that for GGLMRTSPNS, -0.108 ± 1.1. Then YLVGRYETTVSTKMNKMRCW, with -0.175 ± 0.53; and SSYPFNDPEMLG, with -1.09 ± 0.33; and QMQYFKATYSI, with -0.613 ± 0.44.

TYCKFVNFYESVKER gave an amyloid nucleation score of 6.753 ± 0.037.

In the case of ELMVTVVDHCTFVVTRLCGE, the amyloid nucleation score came to 7.184 ± 0.064. In turn, TIRSCVNF came in with an amyloid nucleation score of 1.41 ± 0.1. YIVYCLFDLLTPNKMWLSPQ: the amyloid nucleation score is -0.661 ± 0.76.

Substance DFCWAFRAASLSRGVRLAAV showed an amyloid nucleation score of 3.23 ± 0.11. The result for IYYGGLKHARVPVTRFEGSP reads 3.87 ± 0.098; that for VCCRDKMSHCRSAALNMVLL, 3.49 ± 0.12. Then VHLTGSCHPNYSGVGKCMVI, with 0.168 ± 0.49; and LVTKSAGLKGGLMRGDRSRK, with 0.585 ± 0.37; and PDPVPM, with 0.632 ± 0.31. Turning to RVRERIQIYLLLSGQDQFKM, the amyloid nucleation score stood at 3.6 ± 0.14.

LCDTVTYWVPLC returned an amyloid nucleation score of 4.28 ± 0.094. Then VWGWD, with -0.517 ± 0.78; and SSTKFAHTFVHNKWVYSGFS, with 2.46 ± 0.11; and NGTINALFSDEAGWSSCGYL, with 0.2 ± 0.34. The result for LLFLVCTSFNLDIQWNFALG reads 4.76 ± 0.087; that for VFNILFSM, 9.098 ± 0.06. GSYLA: the amyloid nucleation score turned out to be 0.697 ± 0.47. For the substance NRDVVKKLPGPSSFVMT, the amyloid nucleation score is -0.552 ± 0.44.

As for TYVYNGAYVVGNWL, the amyloid nucleation score was -0.964 ± 0.54. Then PIHNNKHGCFSSERSSFHKM, with -1.6 ± 0.75; and KSFGCIRKCEDCYIW, with 0.74 ± 0.51.

As for SRVDNVSSAPAISAMGVWCG, the amyloid nucleation score turned out to be 1.14 ± 0.38. The result for FDIPCSFVPVYHIKAFLCRM reads -0.353 ± 0.79.

Turning to RYYVSEPLGDFAWFFPGDHR, the amyloid nucleation score result was “inactive”.

On to RLSRYFLRFWWAYDYDSN, for which the amyloid nucleation score came to 0.101 ± 0.54.

SWTCFTLVVRRTAGYWVWSA gave an amyloid nucleation score of 0.331 ± 0.33. The result for SVFKMNEGFGNEHSNAPMRG reads “inactive”; that for YSYFSYVLRFMCSYLLALTQ, “inactive”. The result for TLFLRMVSLHFKSVVLWNWF reads 0.213 ± 0.8; that for CSLFLWGLMDLLV, “inactive”; that for IGISLSSRPCYTFFSRLRWI, -0.387 ± 0.38. Then YLSQWLSEWGVQRYVESYAR, with 0.445 ± 0.29; and LWFDLSSTLPQM, with 0.396 ± 0.62; and DGGVYTNINIFGCLVGFGGW, with 8.006 ± 0.026. For SIFKSIWDYLIYRSLVSHPH, the amyloid nucleation score is -0.305 ± 1. In turn, PACTLESYRSNNFDGLFMTT displayed an amyloid nucleation score of -0.609 ± 0.76. In turn, CNPASYMSALVGGSVSRDSR displayed an amyloid nucleation score of -0.076 ± 0.46.

In turn, IEVRRKPSLDLKLDGEGIVR returned an amyloid nucleation score of 1.37 ± 0.32. As to PRDNSQVLILLNW, the amyloid nucleation score stood at 5.424 ± 0.041. TVWYCALSL displayed an amyloid nucleation score of 10.61 ± 0.07. SMYSSASMQWSDRFNILYEV showed an amyloid nucleation score of -0.291 ± 0.31.

As for FSTQGTFVSVHGVADLAVCF, the amyloid nucleation score result is “inactive”. In the case of RLQDNRDVATGH, the amyloid nucleation score result was “inactive”. In the case of RMKMDNIPFEIYVFTVTLLD, the amyloid nucleation score entry was “inactive”. Then CNDGGENGWKCTGR, with 0.497 ± 0.57; and FDLNSTVWIRCGGLILRLKP, with 0.01 ± 0.25.
